Measured values published in publication PMC9251316, “Engineering the Active Site Pocket to Enhance the Catalytic Efficiency of a Novel Feruloyl Esterase Derived From Human Intestinal Bacteria Dorea formicigenerans” (Frontiers in Bioengineering and Biotechnology, 2022).

How the values were obtained:
[1] = biological target: feruloyl esterase from Dorea formicigenerans (DfFAE) (Dorea formicigenerans); experiment: SEC; Superdex 200 Increase 10/300 GL; elution volume 12.9 ml; mass markers conalbumin 75 kDa and aldolase 158 kDa; apparent MW about 117 kDa
[2] = substrate: CCCC(=O)Oc1ccc([N+](=O)[O-])cc1; experiment: purified protein; format: biochemical, Dorea formicigenerans; conditions: 10 mM Tris-HCl pH 8.4, 2.5% Triton X-100, 40 °C
[3] = substrate: CC(=O)Oc1ccc([N+](=O)[O-])cc1; experiment: purified protein; format: biochemical, Dorea formicigenerans; conditions: 10 mM Tris-HCl pH 8.4, 2.5% Triton X-100, 40 °C
[4] = substrate: CCCCCCCC(=O)Oc1ccc([N+](=O)[O-])cc1; experiment: purified protein; format: biochemical, Dorea formicigenerans; conditions: 10 mM Tris-HCl pH 8.4, 2.5% Triton X-100, 40 °C

stoichiometry N [1] | Molecule | Km [2] | kcat [2] | kcat/Km [2] | Km [3] | kcat [3] | kcat/Km [3] | Km [4] | kcat [4] | kcat/Km [4]
3 | feruloyl esterase from Dorea formicigenerans (DfFAE) (enzyme) | – | – | – | – | – | – | – | – | –
– | DfFAE (Dorea formicigenerans; N156A) (protein, E. coli T7; trimeric by SEC (117 kDa)) MNQKKECMDVHVNGLKFHVQTFGSGVPIIMIMGLGAPGDKWKHNYELLSKWFWCIVPDNRGAGLSDKPEAESYTTEQMADDIIGIMDALDIKKAHVMGVSMGGAIAQQVALKVPDRVLSLILTSTFASVSPAFKKALNLICELKEDTDPAVLKQLALWMTYGQYTQIHHPEKIEKSIEEDAAYPYPMPVYAYKAQCGACLSHNTAGRLHELKMPVLIAAGAKDLFMNIEKTMELVHGIPQAEFYLAPEGGHVHQWEYPEPYDSVVVGFLMKHTN | 334.3 ± 43.69 µM | 2.85 ± 0.0997 s⁻¹ | 8520 ± 166 M⁻¹ s⁻¹ | 644.7 ± 40.59 µM | 14.8 ± 0.333 s⁻¹ | 22940 ± 85.5 M⁻¹ s⁻¹ | – | – | –
– | DfFAE (Dorea formicigenerans) (protein, E. coli T7; trimeric by SEC (117 kDa)) MNQKKECMDVHVNGLKFHVQTFGSGVPIIMIMGLGAPGDKWKHNYELLSKWFWCIVPDNRGAGLSDKPEAESYTTEQMADDIIGIMDALDIKKAHVMGVSMGGAIAQQVALKVPDRVLSLILTSTFASVSPAFKKALNLICELKEDTDPAVLKQLNLWMTYGQYTQIHHPEKIEKSIEEDAAYPYPMPVYAYKAQCGACLSHNTAGRLHELKMPVLIAAGAKDLFMNIEKTMELVHGIPQAEFYLAPEGGHVHQWEYPEPYDSVVVGFLMKHTN | 357.3 ± 68.62 µM | 0.798 ± 0.0436 s⁻¹ | 2230 ± 247 M⁻¹ s⁻¹ | 572 ± 56.57 µM | 4.42 ± 0.165 s⁻¹ | 7730 ± 136 M⁻¹ s⁻¹ | 526.2 ± 73.57 µM | 0.186 ± 0.00865 s⁻¹ | 354 ± 186 M⁻¹ s⁻¹
– | DfFAE (Dorea formicigenerans; P149A) (protein, E. coli T7; trimeric by SEC (117 kDa)) MNQKKECMDVHVNGLKFHVQTFGSGVPIIMIMGLGAPGDKWKHNYELLSKWFWCIVPDNRGAGLSDKPEAESYTTEQMADDIIGIMDALDIKKAHVMGVSMGGAIAQQVALKVPDRVLSLILTSTFASVSPAFKKALNLICELKEDTDAAVLKQLNLWMTYGQYTQIHHPEKIEKSIEEDAAYPYPMPVYAYKAQCGACLSHNTAGRLHELKMPVLIAAGAKDLFMNIEKTMELVHGIPQAEFYLAPEGGHVHQWEYPEPYDSVVVGFLMKHTN | – | – | – | 803.7 ± 107.8 µM | 17.4 ± 0.809 s⁻¹ | 21690 ± 181 M⁻¹ s⁻¹ | 428.8 ± 35.31 µM | 1.08 ± 0.0243 s⁻¹ | 2510 ± 105 M⁻¹ s⁻¹
– | DfFAE (Dorea formicigenerans; P186A) (protein, E. coli T7; trimeric by SEC (117 kDa)) MNQKKECMDVHVNGLKFHVQTFGSGVPIIMIMGLGAPGDKWKHNYELLSKWFWCIVPDNRGAGLSDKPEAESYTTEQMADDIIGIMDALDIKKAHVMGVSMGGAIAQQVALKVPDRVLSLILTSTFASVSPAFKKALNLICELKEDTDPAVLKQLNLWMTYGQYTQIHHPEKIEKSIEEDAAYPYAMPVYAYKAQCGACLSHNTAGRLHELKMPVLIAAGAKDLFMNIEKTMELVHGIPQAEFYLAPEGGHVHQWEYPEPYDSVVVGFLMKHTN | – | – | – | 824 ± 242.1 µM | 11.3 ± 1.21 s⁻¹ | 13700 ± 400 M⁻¹ s⁻¹ | – | – | –
– | DfFAE (Dorea formicigenerans; W255A) (protein, E. coli T7; trimeric by SEC (117 kDa)) MNQKKECMDVHVNGLKFHVQTFGSGVPIIMIMGLGAPGDKWKHNYELLSKWFWCIVPDNRGAGLSDKPEAESYTTEQMADDIIGIMDALDIKKAHVMGVSMGGAIAQQVALKVPDRVLSLILTSTFASVSPAFKKALNLICELKEDTDPAVLKQLNLWMTYGQYTQIHHPEKIEKSIEEDAAYPYPMPVYAYKAQCGACLSHNTAGRLHELKMPVLIAAGAKDLFMNIEKTMELVHGIPQAEFYLAPEGGHVHQAEYPEPYDSVVVGFLMKHTN | – | – | – | 809.7 ± 182.4 µM | 12.1 ± 0.891 s⁻¹ | 14900 ± 299 M⁻¹ s⁻¹ | 178.2 ± 13.66 µM | 2.87 ± 0.0543 s⁻¹ | 16100 ± 95.6 M⁻¹ s⁻¹
– | DfFAE (Dorea formicigenerans; V252A) (protein, E. coli T7; trimeric by SEC (117 kDa)) MNQKKECMDVHVNGLKFHVQTFGSGVPIIMIMGLGAPGDKWKHNYELLSKWFWCIVPDNRGAGLSDKPEAESYTTEQMADDIIGIMDALDIKKAHVMGVSMGGAIAQQVALKVPDRVLSLILTSTFASVSPAFKKALNLICELKEDTDPAVLKQLNLWMTYGQYTQIHHPEKIEKSIEEDAAYPYPMPVYAYKAQCGACLSHNTAGRLHELKMPVLIAAGAKDLFMNIEKTMELVHGIPQAEFYLAPEGGHAHQWEYPEPYDSVVVGFLMKHTN | 83.61 ± 8.65 µM | 1.07 ± 0.0216 s⁻¹ | 12830 ± 124 M⁻¹ s⁻¹ | 288.9 ± 53.8 µM | 12.8 ± 0.51 s⁻¹ | 44130 ± 226 M⁻¹ s⁻¹ | 99.87 ± 18.76 µM | 0.52 ± 0.018 s⁻¹ | 5200 ± 222 M⁻¹ s⁻¹
